Assay results as given in publication PMC3919167.

Target: Bacteriophage P23-77 small major capsid protein VP16, recombinant (bacteriophage P23-77)
Assay: SEC

Bacteriophage P23-77 small major capsid protein VP16, recombinant (natural protein)
stoichiometry N: 2
